From patent US20250171549A1
Where “and” joins values, the source holds several entries; their conditions need not be identical. Equal values may be shown once.

Key:
[1] = biological target: P_19-30 construct (truncated N-terminal peptide of human CCR8 fused to V5 tag, chicken albumin, FLAG tag, BAP and H3G) (human); experiment: flow cytometry, construct on streptavidin beads
[2] = biological target: P_1-12 construct (truncated N-terminal peptide of human CCR8 fused to V5 tag, chicken albumin, FLAG tag, BAP and H3G) (human); experiment: flow cytometry, construct on streptavidin beads
[3] = biological target: T1, P_25-35 construct (truncated N-terminal peptide of human CCR8 fused to V5 tag, chicken albumin, FLAG tag, BAP and H3G) (human); experiment: flow cytometry, construct on streptavidin beads
T1 sequence (chain, biotinylated in vivo at BAP): CDAELIQTNGK

[4] = biological target: P_7-18 construct (truncated N-terminal peptide of human CCR8 fused to V5 tag, chicken albumin, FLAG tag, BAP and H3G) (human); experiment: flow cytometry, construct on streptavidin beads
[5] = biological target: P_13-24 construct (truncated N-terminal peptide of human CCR8 fused to V5 tag, chicken albumin, FLAG tag, BAP and H3G) (human); experiment: flow cytometry, construct on streptavidin beads
[6] = biological target: P_1-35 construct (full-length N-terminal peptide of human CCR8 fused to V5 tag, chicken albumin, FLAG tag, BAP and H3G) (human); experiment: flow cytometry, construct on streptavidin beads
Chain of P_1-35 construct (full-length N-terminal peptide of human CCR8 fused to V5 tag, chicken albumin, FLAG tag, BAP and H3G) (human) (chain, as listed by the source): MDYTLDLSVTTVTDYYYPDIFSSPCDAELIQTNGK

[7] = biological target: human CCR8 (human) (UniProt P51685); experiment: flow cytometry, HuT78 cells, 5 ug/mL
Chain of human CCR8 (human) (P51685 whole entry): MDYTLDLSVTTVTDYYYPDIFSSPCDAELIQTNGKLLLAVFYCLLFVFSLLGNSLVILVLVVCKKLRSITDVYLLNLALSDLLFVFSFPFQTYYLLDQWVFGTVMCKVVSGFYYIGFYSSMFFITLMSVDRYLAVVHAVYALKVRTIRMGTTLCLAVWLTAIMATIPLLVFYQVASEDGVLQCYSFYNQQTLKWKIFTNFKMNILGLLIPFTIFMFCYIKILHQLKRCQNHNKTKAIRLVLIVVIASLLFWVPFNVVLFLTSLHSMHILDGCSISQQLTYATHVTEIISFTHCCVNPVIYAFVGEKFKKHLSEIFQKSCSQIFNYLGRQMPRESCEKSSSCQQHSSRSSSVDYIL

[8] = biological target: human CCR8 with an A27G point mutation (human) (UniProt P51685); experiment: flow cytometry, HEK293T transfectants, 5 ug/mL
Chain of human CCR8 with an A27G point mutation (human) (P51685 whole entry A27G): as the sequence (P51685 whole entry) above, with A27G counted along it

[9] = biological target: human CCR8 (human) (UniProt P51685); experiment: flow cytometry, primary human Tregs (PBMC, CD4+CD25+CD127- gate)
[10] = biological target: cynomolgus monkey CCR8 (comprising threonine at position four) (cynomolgus monkey); experiment: flow cytometry, primary cynomolgus Tregs (PBMC, CD4+CD25+CD127- gate)
Chain of cynomolgus monkey CCR8 (comprising threonine at position four) (cynomolgus monkey) (O97665 other isoform, or with tags, fused parts or gaps): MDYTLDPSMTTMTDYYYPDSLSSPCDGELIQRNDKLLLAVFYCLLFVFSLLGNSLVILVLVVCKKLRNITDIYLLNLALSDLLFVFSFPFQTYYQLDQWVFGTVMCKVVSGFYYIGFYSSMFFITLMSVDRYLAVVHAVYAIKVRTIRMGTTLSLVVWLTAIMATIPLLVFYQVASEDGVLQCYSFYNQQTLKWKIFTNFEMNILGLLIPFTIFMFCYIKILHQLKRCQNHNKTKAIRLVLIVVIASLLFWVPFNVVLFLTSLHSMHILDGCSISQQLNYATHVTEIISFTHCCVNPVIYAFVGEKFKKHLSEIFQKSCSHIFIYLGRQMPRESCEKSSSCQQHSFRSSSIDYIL

[11] = biological target: cynomolgus monkey CCR8 (comprising threonine at position four) (cynomolgus monkey); experiment: flow cytometry, primary cynomolgus Tregs, purified antibody 20 ug/ml
[12] = biological target: rat CCR8 (rat); experiment: flow cytometry, HEK293T transfectants, 5 ug/mL
Chain of rat CCR8 (rat) (P56484 other isoform, or with tags, fused parts or gaps): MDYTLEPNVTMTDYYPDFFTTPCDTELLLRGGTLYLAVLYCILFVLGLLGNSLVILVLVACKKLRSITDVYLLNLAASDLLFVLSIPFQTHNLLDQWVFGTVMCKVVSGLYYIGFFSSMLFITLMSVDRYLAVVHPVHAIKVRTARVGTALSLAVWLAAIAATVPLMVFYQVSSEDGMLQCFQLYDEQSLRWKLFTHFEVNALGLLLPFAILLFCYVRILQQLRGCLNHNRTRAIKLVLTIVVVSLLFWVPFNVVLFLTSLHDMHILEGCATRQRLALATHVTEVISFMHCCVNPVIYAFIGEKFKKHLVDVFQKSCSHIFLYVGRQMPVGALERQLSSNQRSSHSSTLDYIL

[13] = biological target: murine CCR8 (murine) (UniProt P56484); experiment: flow cytometry, HEK293T transfectants, 5 ug/mL
Chain of murine CCR8 (murine) (P56484 whole entry): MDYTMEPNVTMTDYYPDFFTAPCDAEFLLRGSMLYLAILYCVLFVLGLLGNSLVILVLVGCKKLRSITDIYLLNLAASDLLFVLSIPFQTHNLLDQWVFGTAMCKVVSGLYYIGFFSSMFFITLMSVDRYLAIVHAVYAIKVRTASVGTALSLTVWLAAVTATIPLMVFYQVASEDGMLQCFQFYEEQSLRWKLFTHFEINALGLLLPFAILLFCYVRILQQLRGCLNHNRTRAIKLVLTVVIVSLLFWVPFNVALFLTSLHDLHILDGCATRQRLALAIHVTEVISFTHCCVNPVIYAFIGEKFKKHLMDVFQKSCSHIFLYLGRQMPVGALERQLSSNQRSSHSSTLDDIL

Chain of anti-human CCR8 antibody clone 433H (BD 747578) (VH): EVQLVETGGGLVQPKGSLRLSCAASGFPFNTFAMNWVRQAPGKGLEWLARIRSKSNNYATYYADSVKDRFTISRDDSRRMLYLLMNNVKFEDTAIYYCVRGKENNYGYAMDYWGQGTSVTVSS
Chain of anti-human CCR8 antibody clone 433H (BD 747578) (VL): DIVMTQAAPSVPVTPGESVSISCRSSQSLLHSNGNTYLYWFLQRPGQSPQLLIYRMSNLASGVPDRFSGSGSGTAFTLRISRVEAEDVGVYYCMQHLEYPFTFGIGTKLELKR

Substance | Median Fluorescence of Sample/Median Fluorescence of Negative Control [1] | Median Fluorescence of Sample/Median Fluorescence of Negative Control [2] | Median Fluorescence of Sample/Median Fluorescence of Negative Control [3] | Median Fluorescence of Sample/Median Fluorescence of Negative Control [4] | Median Fluorescence of Sample/Median Fluorescence of Negative Control [5] | Median Fluorescence of Sample/Median Fluorescence of Negative Control [6] | binding by FACS (read-out not named) [7] | binding by FACS (read-out not named) [8] | CCR8+CD127-CD25+CD4, % positive [9] | CCR8+CD127-CD25+CD4, % positive [10] | CCR8+CD127-CD25+CD4, % positive [11] | binding by FACS (read-out not named) [12] | binding by FACS (read-out not named) [13]
anti-human CCR8 antibody clone L263G8 (BioLegend, 360602) | 0.9 | 0.9 | 0.9 | 0.9 | 285 | 751 | 4500 | 41400 | – | – | – | – | –
Cyno IgG2a (antibody) | – | – | – | – | – | – | – | – | 0% and 0.1% | 0.3% and 0.8% | – | – | –
anti-human CCR8 antibody clone 433H (BD 747578) | 0.9 | 0.9 | 0.9 | 0.9 | 300 | 290 | – | – | – | – | 66.2% and 63.7% | – | –
SA214G2 (antibody) | – | – | – | – | – | – | – | – | – | – | – | 1590 | 56800
Negative control (Table 6) | 1 | 1 | 1.1 | 1 | 1 | 1 | – | – | – | – | – | – | –

Further lines, results first:

Median Fluorescence of Sample/Median Fluorescence of Negative Control [1] | Median Fluorescence of Sample/Median Fluorescence of Negative Control [2] | Median Fluorescence of Sample/Median Fluorescence of Negative Control [3] | Median Fluorescence of Sample/Median Fluorescence of Negative Control [4] | Median Fluorescence of Sample/Median Fluorescence of Negative Control [5] | Median Fluorescence of Sample/Median Fluorescence of Negative Control [6] | binding by FACS (read-out not named) [7] | binding by FACS (read-out not named) [8] | CCR8+CD127-CD25+CD4, % positive [9] | CCR8+CD127-CD25+CD4, % positive [10] | CCR8+CD127-CD25+CD4, % positive [11] | binding by FACS (read-out not named) [12] | binding by FACS (read-out not named) [13] | Substance
1020 | 1090 | 1090 | 1090 | 1300 | 953 | – | – | – | – | – | – | – | anti-V5 antibody (clone SV5-Pk1; AbD Serotec, MCA 1360)
– | – | – | – | – | – | – | – | 1.5% and 0% and 1.9% | 11.9% and 11.3% | – | – | – | Hu IgG2b (antibody)
590 | 596 | 582 | 589 | 628 | 522 | – | – | – | – | – | – | – | anti-FLAG antibody (clone M2, Sigma F3165/F1804)
